Patent publication US20260167731A1 (DOMAIN THERAPEUTICS, published 2026)
Changes are numbered by the printed parent chain. Values joined by “and” are separate entries in the source; they are usually repeats but may differ in a detail not shown here. Equal values may be shown once.

Assays:
human CCR8 [1] = biological target: T1, human CCR8 (human, UniProt P51685 1-355); assay: cell-based or functional assay
human CCR8 [2] = biological target: T1, human CCR8; assay: cell-based or functional assay; remark: listed apart in the source
human CCR8 [3] = biological target: T1, human CCR8; assay: cell-based or functional assay; remark: listed apart in the source
human CCR8 [4] = biological target: T1, human CCR8; assay: flow cytometry, hCCR8 transfected CHOK1 cells
How it was run: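 Flow cytometry read fluorescent secondary antibody (anti-mouse Alexa 488 or anti-human Fc PE) after washing, with matched isotype controls included.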

[5] = biological target: pm5, modified CCR8 related peptide (human, sulfated tyrosines at Y15 and Y17); assay: ELISA on coated CCR8 peptide (500 ng/mL), OD [cont.]
Sequence of pm5, modified CCR8 related peptide (human, sulfated tyrosines at Y15 and Y17) (peptide, as listed by the source): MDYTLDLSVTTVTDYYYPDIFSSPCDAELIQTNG
How it was run: (§1)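 Each antibody was incubated on the coated peptide panel for 90 min at room temperature at 1 μg/mL and at a tenfold dilution, with unbound mAb washed away. Colour was developed with TMB for 15 min.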

[6] = biological target: pm6, modified CCR8 related peptide (human, sulfated tyrosines at Y16 and Y17); assay: as above
Sequence of pm6, modified CCR8 related peptide (human, sulfated tyrosines at Y16 and Y17) (peptide, as listed by the source): as above
How it was run: as §1

[7] = biological target: pm8, modified CCR8 related peptide (human, sulfated tyrosines at Y15, Y16 and Y17); assay: as above
Sequence of pm8, modified CCR8 related peptide (human, sulfated tyrosines at Y15, Y16 and Y17) (peptide, as listed by the source): as above
How it was run: as §1

[8] = biological target: T2, pwt1, unmodified CCR8 related peptide (human, none (non-sulfated Y15, Y16, Y17)); assay: as above
T2 construct: First 34 amino acids of human CCR8, synthetic; also called unmodified peptide
T2 sequence (peptide, as listed by the source): as above
How it was run: as §1

[9] = biological target: pm1, modified CCR8 related peptide (human, sulfated tyrosine at Y15); assay: as above
Sequence of pm1, modified CCR8 related peptide (human, sulfated tyrosine at Y15) (peptide, as listed by the source): as above
How it was run: as §1

[10] = biological target: pm2, modified CCR8 related peptide (human, sulfated tyrosine at Y16); assay: as above
Sequence of pm2, modified CCR8 related peptide (human, sulfated tyrosine at Y16) (peptide, as listed by the source): as above
How it was run: as §1

[11] = biological target: pm3, modified CCR8 related peptide (human, sulfated tyrosine at Y17); assay: as above
Sequence of pm3, modified CCR8 related peptide (human, sulfated tyrosine at Y17) (peptide, as listed by the source): as above
How it was run: as §1

[12] = biological target: pm4, modified CCR8 related peptide (human, sulfated tyrosines at Y15 and Y16); assay: as above
Sequence of pm4, modified CCR8 related peptide (human, sulfated tyrosines at Y15 and Y16) (peptide, as listed by the source): as above
How it was run: as §1

human CCR8 [13] = biological target: T1, human CCR8; assay: flow cytometry, inhibition of hCCL1-AF647 binding to hCCR8 CHO cells
How it was run: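 hCCR8-transfected CHO cells preincubated 30 min at 4 °C with anti-CCR8 mAb from 10 μg/mL, 1/3 dilutions, 8 concentrations. Bound CCL1 quantified by flow cytometry. IC₅₀ from sigmoidal variable-slope fit.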

human CCR8 [14] = biological target: T1, human CCR8; assay: cell-based or functional assay; remark: listed apart in the source

B1: anti-CCR8 mAb 2-10 (antibody, V domains shown)
VH: QVQVQQSGAELARPGASVKMSCKASGYTFTTYAMHWVKQRPGQGLEWIGHINPSSGYSNYNQKFKDKATLTADKSSSTAYMQLSSLTSEDSAVYYCARSEVRRGYFDVWGAGTTVTVSS
VL: DIQMTQTTSSLSASLGDRVTISCRTSQDIRNYLNWYQQKPDGTVKLLISYTSRLHSGVPSRFSGSGSGTDYSLTISNLEQEDFATYFCQQGNTLPPTFGGGTRVEIK
IC50, CCL1 induced hCCR8 Gi2 signaling (BRET, HEK-293) (human CCR8 [1]): 0.004 µg/mL and 0.029 nM | hCCL1 (100 nM) residual response in %, Protocol #2, mAb 0.08 µg/mL (0.53 nM) (human CCR8 [2]): 52% | hCCL1 (100 nM) residual response in %, Protocol #2, mAb 0.4 µg/mL (2.67 nM) (human CCR8 [2]): 68% | hCCL1 (100 nM) residual response in %, Protocol #2, mAb 10 µg/mL (66.7 nM) (human CCR8 [2]): 53% | hCCL1 (100 nM) residual response in %, Protocol #3, mAb 0.05 µg/mL (0.33 nM) (human CCR8 [2]): 76% | hCCL1 (100 nM) residual response in %, Protocol #3, mAb 0.5 µg/mL (3.33 nM) (human CCR8 [2]): 62% | hCCL1 (100 nM) residual response in %, Protocol #3, mAb 5 µg/mL (33.3 nM) (human CCR8 [2]): 59% | Top plateau values in presence of 5 µg/mL mAb (% of hCCL1 (100 nM)), protocol #3 (human CCR8 [3]): 948% | % positive cells (human CCR8 [4]): 77% | MFI fold change to isotype ctrl (human CCR8 [4]): 9.2 fold | binding result [5]: binds | binding result [6]: binds | binding result [7]: binds | binding result [8]: binds | binding result [9]: binds | binding result [10]: binds | binding result [11]: binds | binding result [12]: binds | IC50 (human CCR8 [13]): 0.22 µg/mL and 1.46 nM

B2: anti-CCR8 mAb 2-1 (antibody, V domains shown)
VH: KVQLQQSGPELVKPGASVKISCKTSGYTFTEYTIHWVQQIHGKSPEWIGGINPNGDTRYDQKFKGKATLTIDKSSSTAYMELRSLTSEDSAVYYCARVARFYGISPYAMDYWGQGTSVTVSS
VL: DVVMTQTPLSLPVSLGDQASISCRCTQSLLHSNGDTYLHWYLQKPGQSPNLLIYKVSNRFSGVPDRFSGSGSGTDFTLKINRVEAEDLGVYFCSQSTHVPYTFGGGTNLEIK
IC50, CCL1 induced hCCR8 Gi2 signaling (BRET, HEK-293) (human CCR8 [1]): 0.462 nM and 0.069 µg/mL | hCCL1 (100 nM) residual response in %, Protocol #2, mAb 0.08 µg/mL (0.53 nM) (human CCR8 [2]): 101% | hCCL1 (100 nM) residual response in %, Protocol #2, mAb 0.4 µg/mL (2.67 nM) (human CCR8 [2]): 93% | hCCL1 (100 nM) residual response in %, Protocol #2, mAb 10 µg/mL (66.7 nM) (human CCR8 [2]): 100% | hCCL1 (100 nM) residual response in %, Protocol #3, mAb 0.05 µg/mL (0.33 nM) (human CCR8 [2]): 92% | hCCL1 (100 nM) residual response in %, Protocol #3, mAb 0.5 µg/mL (3.33 nM) (human CCR8 [2]): 81% | hCCL1 (100 nM) residual response in %, Protocol #3, mAb 5 µg/mL (33.3 nM) (human CCR8 [2]): 73% | Top plateau values in presence of 5 µg/mL mAb (% of hCCL1 (100 nM)), protocol #3 (human CCR8 [3]): 663% | IC50, CCL1 induced hCCR8 Gi2 signaling (BRET) at pH 6.5 (human CCR8 [14]): 0.051 µg/ml and 0.34 nM | IC50, CCL1 induced hCCR8 Gi2 signaling (BRET) at pH 7.4 (human CCR8 [14]): 0.059 µg/ml and 0.396 nM | % positive cells (human CCR8 [4]): 85.7% | MFI fold change to isotype ctrl (human CCR8 [4]): 9.8 fold | binding result [5]: binds | binding result [6]: binds | binding result [7]: binds | binding result [8]: binds | binding result [9]: binds | binding result [10]: binds | binding result [11]: binds | binding result [12]: binds | IC50 (human CCR8 [13]): 1.29 µg/mL and 8.62 nM

B3: anti-CCR8 mAb 2-2 (antibody, V domains shown)
VH: QVQLKESGPGLVAPSQSLSITCTVSGLSMNDYVVTWIRQPPGKGLEWLGVIWGGGNTYYNSDLKSRLSITKDNSKSQVFFKMSSLQTDDTAVYYCARRHRDYALDYWGQGISVTVSS
VL: B2 VL with C25S, T26S, L30V, H31Y, D35N, N50K, N81S, H98Y, Y101P, N108K
IC50, CCL1 induced hCCR8 Gi2 signaling (BRET, HEK-293) (human CCR8 [1]): 0.143 µg/mL and 0.954 nM | hCCL1 (100 nM) residual response in %, Protocol #2, mAb 0.08 µg/mL (0.53 nM) (human CCR8 [2]): 99% | hCCL1 (100 nM) residual response in %, Protocol #2, mAb 0.4 µg/mL (2.67 nM) (human CCR8 [2]): 97% | hCCL1 (100 nM) residual response in %, Protocol #2, mAb 10 µg/mL (66.7 nM) (human CCR8 [2]): 97% | hCCL1 (100 nM) residual response in %, Protocol #3, mAb 0.05 µg/mL (0.33 nM) (human CCR8 [2]): 99% | hCCL1 (100 nM) residual response in %, Protocol #3, mAb 0.5 µg/mL (3.33 nM) (human CCR8 [2]): 84% | hCCL1 (100 nM) residual response in %, Protocol #3, mAb 5 µg/mL (33.3 nM) (human CCR8 [2]): 75% | Top plateau values in presence of 5 µg/mL mAb (% of hCCL1 (100 nM)), protocol #3 (human CCR8 [3]): 133% | IC50, CCL1 induced hCCR8 Gi2 signaling (BRET) at pH 6.5 (human CCR8 [14]): 0.414 µg/ml and 2.76 nM | IC50, CCL1 induced hCCR8 Gi2 signaling (BRET) at pH 7.4 (human CCR8 [14]): 0.359 µg/ml and 2.4 nM | % positive cells (human CCR8 [4]): 85.2% | MFI fold change to isotype ctrl (human CCR8 [4]): 11.9 fold | binding result [5]: binds | binding result [6]: binds | binding result [7]: binds | binding result [8]: binds | binding result [9]: binds | binding result [10]: binds | binding result [11]: binds | binding result [12]: binds | IC50 (human CCR8 [13]): 2.65 µg/mL and 15.2 nM
